Reference: the supplement of paper PMC7877785
± gives the uncertainty stated by the source.

Test: self-splicing fitness, log relative to wild type (ln ratio); higher = more splicing; Tetrahymena group I intron in knt gene, E. coli kanamycin selection, DiMSum; sequences stand for … in CUCUCU…GGAGGGAAAAGUUAUCAGGCAUGCACCUGGUAGCUAGUCUUUAAACCAAUAGAUUGCAUCGGUUUAAAAGGCAAGACCGUCAAAUUGCGGGAAAGGGGUCAACAGCCGUUCAGUACCAAGUCUCAGGGGAAACUUUGAGAUGGCCUUGCAAAGGGUAUGGUAAUAAGCUGACGGACAUGGUCCUAACCACGCAGCCAAGUCCUAAGUCAACAGAUCUUCUGUUGAUAUGGAUGCAGUUCACAGACUAAAUGUCGGUCGGGGAAGAUGUAUUCUUCUCAUAAGAUAUAGUCGGACCUCUCCUUAAUGGGAGCUAGCGGAUGAAGUGAUGCAACACUGGAGCCGCUGGGAACUAAUUUGUAUGCGAAAGUAUAUUGAUUAGUUUUGGAGUACUCGUGGUCG
Summary of the method: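 Pooled colonies went to amplicon sequencing on an Illumina HiSeq 2500 after six replicate transformations. The plates were LB agar with 100 μg/mL carbenicillin, 50 μM IPTG and 0.2% rhamnose, with or without 25 μg/mL kanamycin, incubated overnight at 37°C or 30°C. The E. coli BL21(DE3) library had all eight P1ex-region intron nucleotides randomised, the intron placed in the knt kanamycin-resistance gene on pET-22b(+). DiMSum fitness is the error-weighted combination of replicate fold changes, kanamycin against none, normalised to wild type.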

UCUGAGCAAUAUUACGCAUU
self-splicing fitness (ln) (30 °C): -3.77 ± 0.37
self-splicing fitness (ln) (37 °C): -2.15 ± 0.31

UCUGAGCAAUAUUACGCCAG
self-splicing fitness (ln) (37 °C): -0.871 ± 0.46

UCUGAGCAAUAUUACGCCUU
self-splicing fitness (ln) (30 °C): -3.06 ± 0.12
self-splicing fitness (ln) (37 °C): -1.54 ± 0.14

UCUGAGCAAUAUUACGCGUU
self-splicing fitness (ln) (30 °C): -4.91 ± 0.45
self-splicing fitness (ln) (37 °C): -2.63 ± 0.28

UCUGAGCAAUAUUACGCUAA
self-splicing fitness (ln) (30 °C): -3.49 ± 0.34

UCUGAGCAAUAUUACGGAAA
self-splicing fitness (ln) (30 °C): -3.08 ± 0.18
self-splicing fitness (ln) (37 °C): -1.64 ± 0.15

UCUGAGCAAUAUUACGGGCU
self-splicing fitness (ln) (37 °C): -3.79 ± 0.42

UCUGAGCAAUAUUACGUACC
self-splicing fitness (ln) (30 °C): -3.19 ± 0.41
self-splicing fitness (ln) (37 °C): -1.96 ± 0.31

UCUGAGCAAUAUUACGUCAU
self-splicing fitness (ln) (30 °C): -3.81 ± 0.35
self-splicing fitness (ln) (37 °C): -2.76 ± 0.2

UCUGAGCAAUAUUACGUCGC
self-splicing fitness (ln) (30 °C): -4.03 ± 0.37
self-splicing fitness (ln) (37 °C): -2.54 ± 0.36

UCUGAGCAAUAUUACGUCUA
self-splicing fitness (ln) (30 °C): -1.67 ± 0.18
self-splicing fitness (ln) (37 °C): -2.17 ± 0.26

UCUGAGCAAUAUUACGUGAG
self-splicing fitness (ln) (30 °C): -1.86 ± 0.11
self-splicing fitness (ln) (37 °C): -0.646 ± 0.097

UCUGAGCAAUAUUACGUGUC
self-splicing fitness (ln) (30 °C): -4.14 ± 0.32

UCUGAGCAAUAUUACGUUAA
self-splicing fitness (ln) (30 °C): -3.47 ± 0.29
self-splicing fitness (ln) (37 °C): -0.512 ± 0.15

UCUGAGCAAUAUUACGUUGU
self-splicing fitness (ln) (30 °C): -4.12 ± 0.21
self-splicing fitness (ln) (37 °C): -1.96 ± 0.18

UCUUAGCAAUAUUACGACAA
self-splicing fitness (ln) (30 °C): -2.45 ± 0.32
self-splicing fitness (ln) (37 °C): -1.18 ± 0.29

UCUUAGCAAUAUUACGACCG
self-splicing fitness (ln) (30 °C): -1.95 ± 0.36
self-splicing fitness (ln) (37 °C): -0.528 ± 0.34

UCUUAGCAAUAUUACGACUA
self-splicing fitness (ln) (37 °C): -2.26 ± 0.45

UCUUAGCAAUAUUACGAGCG
self-splicing fitness (ln) (30 °C): -1.36 ± 0.13
self-splicing fitness (ln) (37 °C): -0.498 ± 0.15

UCUUAGCAAUAUUACGAGGG
self-splicing fitness (ln) (30 °C): -1.87 ± 0.16
self-splicing fitness (ln) (37 °C): -2.1 ± 0.25

UCUUAGCAAUAUUACGAUAA
self-splicing fitness (ln) (30 °C): -2.73 ± 0.46
self-splicing fitness (ln) (37 °C): -2.27 ± 0.4

UCUUAGCAAUAUUACGAUCC
self-splicing fitness (ln) (30 °C): -1.98 ± 0.38

UCUUAGCAAUAUUACGCAGA
self-splicing fitness (ln) (30 °C): -1.55 ± 0.46
self-splicing fitness (ln) (37 °C): -1.36 ± 0.29

UCUUAGCAAUAUUACGCCAG
self-splicing fitness (ln) (30 °C): -2.74 ± 0.27

UCUUAGCAAUAUUACGCCUU
self-splicing fitness (ln) (37 °C): -1.86 ± 0.3

UCUUAGCAAUAUUACGCGAG
self-splicing fitness (ln) (30 °C): -2.25 ± 0.17
self-splicing fitness (ln) (37 °C): -2.92 ± 0.28

UCUUAGCAAUAUUACGGACA
self-splicing fitness (ln) (30 °C): -2.63 ± 0.2
self-splicing fitness (ln) (37 °C): -1.19 ± 0.14

UCUUAGCAAUAUUACGGAGU
self-splicing fitness (ln) (30 °C): -3.29 ± 0.13
self-splicing fitness (ln) (37 °C): -2.28 ± 0.11

UCUUAGCAAUAUUACGGGUA
self-splicing fitness (ln) (30 °C): -1.46 ± 0.076
self-splicing fitness (ln) (37 °C): -0.741 ± 0.084

UCUUAGCAAUAUUACGGGUG
self-splicing fitness (ln) (30 °C): -0.927 ± 0.055
self-splicing fitness (ln) (37 °C): -0.165 ± 0.069

UCUUAGCAAUAUUACGGUUA
self-splicing fitness (ln) (37 °C): -2.37 ± 0.39

UCUUAGCAAUAUUACGUAAC
self-splicing fitness (ln) (30 °C): -3.34 ± 0.26
self-splicing fitness (ln) (37 °C): -1.95 ± 0.32

UCUUAGCAAUAUUACGUACA
self-splicing fitness (ln) (30 °C): -2.58 ± 0.19
self-splicing fitness (ln) (37 °C): -1.28 ± 0.16

UCUUAGCAAUAUUACGUAGC
self-splicing fitness (ln) (30 °C): -3.98 ± 0.46
self-splicing fitness (ln) (37 °C): -1.98 ± 0.21

UCUUAGCAAUAUUACGUCAG
self-splicing fitness (ln) (30 °C): -1.01 ± 0.16
self-splicing fitness (ln) (37 °C): -1.28 ± 0.2

UCUUAGCAAUAUUACGUGUA
self-splicing fitness (ln) (30 °C): -0.944 ± 0.17
self-splicing fitness (ln) (37 °C): -1.19 ± 0.2

UCUUAGCAAUAUUACGUUCG
self-splicing fitness (ln) (30 °C): -2.21 ± 0.11
self-splicing fitness (ln) (37 °C): -1.38 ± 0.18

UCUUAGCAAUAUUACGUUUG
self-splicing fitness (ln) (30 °C): -3.07 ± 0.17
self-splicing fitness (ln) (37 °C): -2.48 ± 0.27

UGAAAGCAAUAUUACGAAAC
self-splicing fitness (ln) (37 °C): -1.79 ± 0.47

UGAAAGCAAUAUUACGAAGC
self-splicing fitness (ln) (37 °C): -2.07 ± 0.28

UGAAAGCAAUAUUACGAAUG
self-splicing fitness (ln) (30 °C): -0.602 ± 0.066
self-splicing fitness (ln) (37 °C): -0.0842 ± 0.078

UGAAAGCAAUAUUACGAAUU
self-splicing fitness (ln) (30 °C): -1.7 ± 0.26
self-splicing fitness (ln) (37 °C): -1.66 ± 0.29

UGAAAGCAAUAUUACGAGCA
self-splicing fitness (ln) (30 °C): -0.581 ± 0.089
self-splicing fitness (ln) (37 °C): 0.406 ± 0.11

UGAAAGCAAUAUUACGAGUU
self-splicing fitness (ln) (30 °C): -3.31 ± 0.15
self-splicing fitness (ln) (37 °C): -0.915 ± 0.095

UGAAAGCAAUAUUACGAUGG
self-splicing fitness (ln) (30 °C): -1.59 ± 0.086
self-splicing fitness (ln) (37 °C): -0.618 ± 0.11

UGAAAGCAAUAUUACGCAUC
self-splicing fitness (ln) (37 °C): -3.14 ± 0.28

UGAAAGCAAUAUUACGCUCC
self-splicing fitness (ln) (30 °C): -1.4 ± 0.12
self-splicing fitness (ln) (37 °C): -0.227 ± 0.14

UGAAAGCAAUAUUACGCUUC
self-splicing fitness (ln) (30 °C): -2.32 ± 0.42
self-splicing fitness (ln) (37 °C): -2.29 ± 0.29

UGAAAGCAAUAUUACGGACA
self-splicing fitness (ln) (30 °C): -0.0695 ± 0.088
self-splicing fitness (ln) (37 °C): -0.28 ± 0.096

UGAAAGCAAUAUUACGGCGU
self-splicing fitness (ln) (30 °C): -1.12 ± 0.095
self-splicing fitness (ln) (37 °C): 0.0159 ± 0.11

UGAAAGCAAUAUUACGGGCA
self-splicing fitness (ln) (30 °C): -0.0393 ± 0.081
self-splicing fitness (ln) (37 °C): 0.386 ± 0.092

UGAAAGCAAUAUUACGGUUC
self-splicing fitness (ln) (30 °C): -4.11 ± 0.26
self-splicing fitness (ln) (37 °C): -2.41 ± 0.23

UGAAAGCAAUAUUACGUAAG
self-splicing fitness (ln) (30 °C): -0.503 ± 0.087
self-splicing fitness (ln) (37 °C): -0.0639 ± 0.12

UGAAAGCAAUAUUACGUCCC
self-splicing fitness (ln) (30 °C): -2.54 ± 0.45

UGAAAGCAAUAUUACGUUCA
self-splicing fitness (ln) (30 °C): -2.03 ± 0.13
self-splicing fitness (ln) (37 °C): -1.48 ± 0.14

UGAAAGCAAUAUUACGUUCG
self-splicing fitness (ln) (30 °C): -1.51 ± 0.094
self-splicing fitness (ln) (37 °C): -0.54 ± 0.11

UGACAGCAAUAUUACGAAAC
self-splicing fitness (ln) (30 °C): -3.96 ± 0.24
self-splicing fitness (ln) (37 °C): -1.96 ± 0.26

UGACAGCAAUAUUACGAUAA
self-splicing fitness (ln) (30 °C): -0.561 ± 0.052
self-splicing fitness (ln) (37 °C): 0.4 ± 0.072

UGACAGCAAUAUUACGAUAU
self-splicing fitness (ln) (30 °C): -2.67 ± 0.16
self-splicing fitness (ln) (37 °C): -1.9 ± 0.14

UGACAGCAAUAUUACGAUUU
self-splicing fitness (ln) (30 °C): -0.733 ± 0.094
self-splicing fitness (ln) (37 °C): -0.108 ± 0.1

UGACAGCAAUAUUACGCACA
self-splicing fitness (ln) (30 °C): 0.341 ± 0.092
self-splicing fitness (ln) (37 °C): 0.528 ± 0.12

UGACAGCAAUAUUACGCACC
self-splicing fitness (ln) (30 °C): -1.38 ± 0.12
self-splicing fitness (ln) (37 °C): -0.767 ± 0.17

UGACAGCAAUAUUACGCCUA
self-splicing fitness (ln) (30 °C): 0.107 ± 0.069
self-splicing fitness (ln) (37 °C): 0.414 ± 0.086

UGACAGCAAUAUUACGCGAC
self-splicing fitness (ln) (30 °C): -1.82 ± 0.14
self-splicing fitness (ln) (37 °C): -1.86 ± 0.19

UGACAGCAAUAUUACGCUAC
self-splicing fitness (ln) (30 °C): -2.24 ± 0.43
self-splicing fitness (ln) (37 °C): -1.56 ± 0.26

UGACAGCAAUAUUACGCUGU
self-splicing fitness (ln) (30 °C): -4.01 ± 0.24
self-splicing fitness (ln) (37 °C): -3.42 ± 0.27

UGACAGCAAUAUUACGCUUC
self-splicing fitness (ln) (30 °C): -3.56 ± 0.25
self-splicing fitness (ln) (37 °C): -2.29 ± 0.23

UGACAGCAAUAUUACGGACG
self-splicing fitness (ln) (30 °C): 0.0374 ± 0.078
self-splicing fitness (ln) (37 °C): 0.415 ± 0.11

UGACAGCAAUAUUACGGAUU
self-splicing fitness (ln) (30 °C): -2.54 ± 0.094
self-splicing fitness (ln) (37 °C): -2.29 ± 0.13

UGACAGCAAUAUUACGGCAA
self-splicing fitness (ln) (30 °C): -1.41 ± 0.14
self-splicing fitness (ln) (37 °C): -0.13 ± 0.17

UGACAGCAAUAUUACGUCAC
self-splicing fitness (ln) (30 °C): -3.74 ± 0.17
self-splicing fitness (ln) (37 °C): -3.16 ± 0.23

UGACAGCAAUAUUACGUCGA
self-splicing fitness (ln) (30 °C): -0.222 ± 0.092
self-splicing fitness (ln) (37 °C): -0.143 ± 0.098

UGACAGCAAUAUUACGUGGU
self-splicing fitness (ln) (30 °C): -3.23 ± 0.15
self-splicing fitness (ln) (37 °C): -2.22 ± 0.12

UGACAGCAAUAUUACGUGUG
self-splicing fitness (ln) (30 °C): -0.953 ± 0.06
self-splicing fitness (ln) (37 °C): -0.807 ± 0.069

UGACAGCAAUAUUACGUGUU
self-splicing fitness (ln) (30 °C): -4.32 ± 0.19
self-splicing fitness (ln) (37 °C): -2.22 ± 0.19

UGACAGCAAUAUUACGUUAA
self-splicing fitness (ln) (30 °C): -0.645 ± 0.1
self-splicing fitness (ln) (37 °C): -1.16 ± 0.09

UGACAGCAAUAUUACGUUAG
self-splicing fitness (ln) (30 °C): -1.01 ± 0.066
self-splicing fitness (ln) (37 °C): -0.987 ± 0.089

UGACAGCAAUAUUACGUUAU
self-splicing fitness (ln) (30 °C): -3.65 ± 0.19
self-splicing fitness (ln) (37 °C): -3.04 ± 0.21

UGACAGCAAUAUUACGUUUC
self-splicing fitness (ln) (30 °C): -1.65 ± 0.29
self-splicing fitness (ln) (37 °C): -1.5 ± 0.33
